Drawing on PMC7501274, this text covers stoichiometry N for two substances.

The target of experiment [1] is CsaC-H228A (Neisseria meningitidis serogroup A). The experiment can be described thus: crystal structure; sitting drop, PEG200, HEPES pH 7.0/7.6; two protein molecules in the asymmetric unit, tetrameric assembly in the crystal packing; apo, CPS-DP4-soaked (wild type) and acetyl-CoA-soaked (H228A) crystals.
Experiment [2] has as its target capsule O-acetyltransferase CsaC, wild type (Neisseria meningitidis serogroup A). Described as above.
For experiment [3] the target is unchanged. Briefly: AUC; sedimentation velocity (3.0 to 40.9 µM CsaC, 35,000 rpm) and sedimentation equilibrium (9.1 and 40.9 µM CsaC, single species model), 20 °C, 50 mM HEPES pH 7.0, 0.1 M NaCl, 5 mM MgCl2, 1 mM EDTA.

In experiment [1], CsaC-H228A (enzyme) gave a stoichiometry N of 4. As for “capsule O-acetyltransferase CsaC, wild type (enzyme)”, the stoichiometry N in experiment [2] and in experiment [3] was 4 each time.
